Measured values from patent publication US20160368993A1 (University of California, published 2016).

Biological target: T1, αvβ6 integrin (R&D Systems), immobilized (UniProt P06756 31-992; P18564 22-707)
T1 construct: Bought protein captured on the plate by the anti-αv antibody P2W7; also called immobilized αvβ6 integrin
Assay: competitive binding ELISA against biotinylated fibronectin on immobilized αvβ6 integrin
Method: Separate competitive binding ELISAs were used to determine the binding affinity of the anti-αᵥβ₆ diabody and Cys-diabody relative to biotinylated fibronectin, a known natural ligand of the αᵥβ₆ integrin. Biotinylation of fibronectin was performed according to the manufacturer's instructions (Amersham Biosciences). The P2W7 antibody (anti-αᵥ, 5 μg/mL, Abcam) was plated into wells (50 μL/well) of a 96-well plate (Maxisorp®, Nunc). The plate was incubated at 37° C. for 1 h then washed with PBS (3×). After washing, the wells were blocked with blocking buffer (PBS, 5% bovine serum albumin (BSA), 1% Tween 20) and the plate was incubated at room temperature for 3 hrs, followed by washing with PBS (3×). The αᵥβ₆ integrin (3 μg/mL, R&D Systems) in conjugate buffer (20 mM Tris, 1 mM MnCl2, 150 mM NaCl, 0.1% Tween, 1% BSA) was added to the wells (50 μL/well). The plate was incubated at room temperature for 1 h and washed with wash buffer (20 mM Tris, 1 mM MnCl2, 150 mM NaCl, 0.1% Tween, 3×). […] Extravidin HRP conjugate was detected using 3,3′,5,5′-tetramethylbenzidine (TMB) substrate (50 μL/well) for 10-15 mins at room temperature. The reaction was terminated by the addition of 1N sulfuric acid (50 μL/well) and the absorbance of each well was measured in a Multiscan Ascent plate reader (Thermo) at 450 nm. […]

T1 sequence (P06756 31-992, chain 1 of 2): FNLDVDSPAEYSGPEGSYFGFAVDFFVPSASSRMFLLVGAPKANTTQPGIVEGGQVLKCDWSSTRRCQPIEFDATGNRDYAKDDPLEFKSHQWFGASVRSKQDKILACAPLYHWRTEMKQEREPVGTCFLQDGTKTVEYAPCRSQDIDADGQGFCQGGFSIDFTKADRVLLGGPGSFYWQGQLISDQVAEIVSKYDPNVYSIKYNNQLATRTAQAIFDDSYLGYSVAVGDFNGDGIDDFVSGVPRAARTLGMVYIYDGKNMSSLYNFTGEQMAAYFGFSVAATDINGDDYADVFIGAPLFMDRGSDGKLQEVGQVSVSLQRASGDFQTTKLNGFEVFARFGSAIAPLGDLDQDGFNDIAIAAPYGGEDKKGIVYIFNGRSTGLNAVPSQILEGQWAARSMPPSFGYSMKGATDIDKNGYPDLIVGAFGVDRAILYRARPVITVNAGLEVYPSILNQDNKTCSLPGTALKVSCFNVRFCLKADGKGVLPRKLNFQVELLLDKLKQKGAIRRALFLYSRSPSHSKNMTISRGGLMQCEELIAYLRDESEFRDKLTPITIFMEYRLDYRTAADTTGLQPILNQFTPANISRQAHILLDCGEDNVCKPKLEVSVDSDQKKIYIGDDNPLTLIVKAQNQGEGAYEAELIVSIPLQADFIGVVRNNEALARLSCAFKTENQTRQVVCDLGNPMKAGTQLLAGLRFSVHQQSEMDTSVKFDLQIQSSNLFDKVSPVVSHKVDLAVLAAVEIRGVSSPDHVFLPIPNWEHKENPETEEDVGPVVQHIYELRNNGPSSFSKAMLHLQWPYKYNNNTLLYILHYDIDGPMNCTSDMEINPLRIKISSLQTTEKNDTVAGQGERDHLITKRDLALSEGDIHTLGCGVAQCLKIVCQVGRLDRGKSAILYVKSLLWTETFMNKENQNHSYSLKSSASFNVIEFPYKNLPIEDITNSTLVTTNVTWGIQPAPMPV
T1 sequence (P18564 22-707, chain 2 of 2): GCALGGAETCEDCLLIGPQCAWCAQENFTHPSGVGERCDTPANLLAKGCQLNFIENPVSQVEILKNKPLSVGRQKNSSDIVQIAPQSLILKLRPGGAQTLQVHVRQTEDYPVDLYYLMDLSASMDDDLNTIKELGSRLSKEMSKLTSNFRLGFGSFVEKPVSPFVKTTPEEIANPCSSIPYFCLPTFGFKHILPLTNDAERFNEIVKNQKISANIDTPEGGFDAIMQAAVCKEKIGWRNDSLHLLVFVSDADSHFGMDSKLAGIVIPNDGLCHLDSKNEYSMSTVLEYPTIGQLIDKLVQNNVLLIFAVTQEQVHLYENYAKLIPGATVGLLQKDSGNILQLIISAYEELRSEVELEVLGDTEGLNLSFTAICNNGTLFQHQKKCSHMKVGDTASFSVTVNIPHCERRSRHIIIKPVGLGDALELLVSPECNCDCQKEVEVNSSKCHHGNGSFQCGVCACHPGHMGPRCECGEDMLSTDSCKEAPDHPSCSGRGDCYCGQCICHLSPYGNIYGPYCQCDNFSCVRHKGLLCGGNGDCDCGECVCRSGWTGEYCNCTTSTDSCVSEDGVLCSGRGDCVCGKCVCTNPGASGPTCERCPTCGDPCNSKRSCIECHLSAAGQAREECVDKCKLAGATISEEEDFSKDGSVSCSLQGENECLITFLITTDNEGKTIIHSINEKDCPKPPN

B1: anti-αvβ6 Cys-diabody (other)
scFv: EVQLVESGGGLVQPGGSLRLSCAASGFTFSRYVMSWVRQAPGKGLEWVASISSGGRMYYPDTVKGRFTISRDNAKNSLYLQMNSLRAEDTAVYYCARGSIYDGYYVFPYWGQGTLVTVSSGGSEIVLTQSPATLSLSPGERATLSCSASSSVSSSYLYWYQQKPGQAPRLLIYSTSNLASGIPARFSGSGSGTDFTLTISSLEPEDFAVYYCHQWSTYPPTFGGGTKVEIKHHHHHHGGC
modifications: C-terminal engineered cysteines of the two chains form an interchain disulfide
notes: Covalent dimer; also called disulfide-stabilized anti-αvβ6 Cys-diabody; B6DiaR-G2S-Cys
IC50: 0.6 nM

B2: anti-αvβ6 diabody (other)
scFv: EVQLVESGGGLVQPGGSLRLSCAASGFTFSRYVMSWVRQAPGKGLEWVASISSGGRMYYPDTVKGRFTISRDNAKNSLYLQMNSLRAEDTAVYYCARGSIYDGYYVFPYWGQGTLVTVSSGGSEIVLTQSPATLSLSPGERATLSCSASSSVSSSYLYWYQQKPGQAPRLLIYSTSNLASGIPARFSGSGSGTDFTLTISSLEPEDFAVYYCHQWSTYPPTFGGGTKVEIKHHHHHH
notes: Non-covalent dimer of two VH-G2S-VL-His6 chains (diabody), secreted from 293-F cells; also called B6DiaR-G2S; parental anti-αvβ6 diabody
IC50: 0.8 nM
